The nanobody polyreactivity screen of Harvey et al. (2022)

Experiment: yeast display, Sf9 membrane polyspecificity reagent, FACS + sequencing; frameworks hold sequencing errors
Method in brief: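 Using colony PCR, genes from sorted yeast display clones were amplified, then sequenced on MiSeq at 2 × 250 and filtered by CDR length. The clones had been stained with 10% biotinylated, detergent-solubilized Sf9 membrane reagent for 1 hour at 4 °C and sorted by FACS into low and high (top ~1%) gates on anti-HA and streptavidin fluorescence. Polyreactivity labels come from the gate of origin.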

Sequence | polyreactivity (PSR sort gate)
QVQLVESGGGLVQAGGSLRFSCAASGSISSQYGMGWYRQEPGKVRELVATIRDGGPTNYADSVKGRFTISRDNAKYTVYLQMNSLKPEDTAVYSCAALYWYYYTWPLYDYWGQGTQVTVSS | low polyreactivity
QVQLVESGGGLVQAGGSLRFSCAASGSTFKRYTMGWYRQAPGKERELVAAISTSSGSTYYADSVKGRFTISRDNAKNSVYLQMHSLKPEDTAVYYCAAVRLRQTYPKYNYWGQGTQVTVSS | high polyreactivity
QVQLVESGGGLVQAGGSLRFSCAASGSTFTTNVMGWYRQAPGKERELVAAISHRGGSTYYADSVKGRFTMSRDNAKNTVYLQMNSLKPEDTAVYYCAAPGWERYGYWGQGTQVTVSS | low polyreactivity
QVQLVESGGGLVQAGGSLRFSCAASGSTFYLYDMGWYRQAPGQERELVAVISWSGGSTSYADSVKGRFTISRDNAKNTIYLQMYSLKPEDTAVYYCTTDFYHWGQGTQVTVSS | low polyreactivity
QVQLVESGGGLVQAGGSLRFSCAASGYIFSLNGRGWYRQAPGKERELVAAISSSGGRTYYADSVKGRFTISRDNAKNTVYLQMNSLKPEDTAVYYCAAEVYLSTYYQDMNYWGQGTQVTVSS | high polyreactivity
QVQLVESGGGLVQAGGSLRFSCAASRSIFFWYTMGWYRQAPGKYRELVATITGSGSSTTYADSVKGRFTISRDNAKNTVYLQMNSLKPEDTAVYYCAAADIIDHSFPYDYWGQGTQVTVSS | low polyreactivity
QVQLVESGGGLVQAGGSLRFSCAATGSIFVVNAMGWYRQAPGKERELVASITWSGDNTYYADSVKGRFTISRDNAKNTVYLQMNSLKPEDTAVYYCAATIWIAYRGWYSDYNYWGQGTQVTVSS | low polyreactivity
QVQLVESGGGLVQAGGSLRFSCAAYGSISRYYAMGWYRLAPGKERELVAAISSNGGSTYYADSVKGRFTISRDNAKNTVYLQMNSLKPEDTAVDDCAAESDYFRYDYWGQGTQVTVSS | high polyreactivity
QVQLVESGGGLVQAGGSLRFSCPASGSIFPAYARGWYRQAPGKERELVAAITRGGSTDYADSVKGRFTISRDNAKNTVYLQMNSLKPEDTAVYYCAKRGYYYYHYVSGKPEDYWGQGTQVTVSS | low polyreactivity
QVQLVESGGGLVQAGGSLRFSSPASGLTFGTYAMGWYRQAPGKERELVAAISTSGVRTYYADSVKGRFTISRDIAKNTVYLQMNSLKPEDTAVYYCAARYNRAYSRDYWGQGSQVTVSS | high polyreactivity
QVQLVESGGGLVQAGGSLRIICAASGSIFVEYAMGWYRQAPGKERELVAAITYRGGSTYYADSVKGRFTISRDNAENTVYLQMNSLKPEDTAVYYCAAAVYYWGTSAYEYWGQGTQVTVSS | low polyreactivity
QVQLVESGGGLVQAGGSLRIRCAASGRIFDTYAMGWYRQAPGKEREFVATISWDSASTYYADSVKGRFTISRDNAKNTVYLQMNSLKPEDTAVDYCAAGGSSSWAFNYWGQGTQLTVSS | low polyreactivity
QVQLVESGGGLVQAGGSLRISCAASASIFPGYAMGWYRQAPGKERELVAAISWSGGRTYYADSVKGRFTISRDNSKNTFYLQMNSLKPEDTAVYYCAARKYHLRSAYDYWGQGTQVTVSS | low polyreactivity
QVQLVESGGGLVQAGGSLRISCAASGFIFRYNAMGWYRQAPGKERELVAAINSGDSTNYADSVKGRFTISRDNAKNTVYLQMNSLKPEDTAVYYYWGQGTQVTVSS | low polyreactivity
QVQLVESGGGLVQAGGSLRISCAASGFSCRQYAMGWYRQAPGKERELVAAISSSGGRTYYADSVKGRFTISRDNAKNTVYLQMNSLKPEDTAVYYCIARAWLRVEYGEGYWGQGTQVTVSS | high polyreactivity
QVQLVESGGGLVQAGGSLRISCAASGFTFPIYAMGWYRKAPGKEREFVAAITASGDNTYYADSVKGRFTISRDNAKNTVYLQMNSLKPEDSAVYYCAADWFVDWWEYDYWGQGTQVTVSS | low polyreactivity
QVQLVESGGGLVQAGGSLRISCAASGFTFVAYAMGWYRKAPGKERELVAAISRRGGTTYYADSVKGRFTISRDNAKNTVYLQMNSLKPEDTAVYYCNARGFPGKFGYWGQGTQVTVSS | high polyreactivity
QVQLVESGGGLVQAGGSLRISCAASGFTFYRYAMGWSIPAPGKERELVAAISSHGDSTYYADSVKGRFTISRDNAKNTVYLQMNSLKPEDTAVYYCNVETLYGYFLHFYLRYYHWGQGTQVTVSS | high polyreactivity
QVQLVESGGGLVQAGGSLRISCAASGFTFYSNDMGWYRQAPGKERELVAAISYSGGSTYYADSVKGRFTISRDNAKNTVYLQMNSLKPEDTAVYYCAAGGLQQGDYWGQGTQVTVSS | low polyreactivity
QVQLVESGGGLVQAGGSLRISCAASGGNFDSNAMGWTRPAPGKVRELVAAISDSGGSTYYADSVKGRFTISRDNAYNTVYLQMNSLKPEDTAVYYCAADSDYHFVNYRFGMDYWGQGTQVTVSS | low polyreactivity
QVQLVESGGGLVQAGGSLRISCAASGIFPAYDMGWYRQAPGKERELVASISSDGSTYYADSVKGRFTISRDNAKNTVYLQMNSLKPEDTAVYYCNDVAIEPYYYVVYDIFDYWGQGTQVTVSS | low polyreactivity
QVQLVESGGGLVQAGGSLRISCAASGIIFAANTMGWYRQAPGKERELVAAITSGGSTKYADSVKGRFTISRDNAKNTVYLQMNSLKPEDTAVYYCAAQYRYQRYSYAMEYWGQGTQVTVSS | high polyreactivity

Sequence | polyreactivity (PSR sort gate)
QVQLVESGGGLVQAGGSLRISCAASGIIFDTNAMGWYRQAPGKERELVATITQRGGTTYYADSVKGRFTISRDNAKNTVYLQMNSLKPEDTAVYYCAKDYWFGYEYWGQGTQVTVSS | low polyreactivity
QVQLVESGGGLVQAGGSLRISCAASGITFNVNAMGWSRQAPGKERELVARITTSGGSTSYADSVKGRFTISRDNAKNTVYLQMNSLKPEDTAVYYCAADRARYYSEYDYWGQGTQVTVSS | low polyreactivity
QVQLVESGGGLVQAGGSLRISCAASGITFSYYAMGWYTPAPGKERELVAAINSGGGSTYYADSVKGRFTISRDNAKNTVYLQMNSLKPEDTAVYYCSARYRSRYDYYYDRDYWGQGTQVTVSS | low polyreactivity
QVQLVESGGGLVQAGGSLRISCAASGITFYGYAMGWYRQAPGKERELVATISKSGGITSYADSVKGRFSISRDNAKNTVYLQMNSLKPEETAVYYCNRGKSYGGYDYWGQGTQVTVSS | low polyreactivity
QVQLVESGGGLVQAGGSLRISCAASGLIFGRYAMGWYRQAPGKERELVAAISSSGVRTYYADSVKGRFTISRDNAKNTVYLQMNSLKPEDTAVYYCAAAYWSSREDTVIKRYYWGQGTQVTVSS | high polyreactivity
QVQLVESGGGLVQAGGSLRISCAASGLIFYSYAMGWYRQAPGKERELVAAISSGTRTYYADSVKGRFTISRDNAKNTVYLQMNSLKPEDTAVYYCAAVDAHKKRYPPSGRLYGYWGQGTQVTVSS | high polyreactivity
QVQLVESGGGLVQAGGSLRISCAASGLIIAYAMGWYRPAPGKERELVAASSGRDGSTYYADSVKGRFTISRDNAKNTVYLHMNSLKPEATAVYYCAKRISYLPVEMDYWGQGTQLTVSS | low polyreactivity
QVQLVESGGGLVQAGGSLRISCAASGLTILFYAMAWYRQAPGKERELVASIRWSDGRTYYADSVKGRFTISRDNAKNTVYLQMNSLKPEDTAVYYCAARSYLTPEYYYWGQGTQVTVSS | high polyreactivity
QVQLVESGGGLVQAGGSLRISCAASGLTSPIYAMGWYRQAPGKERELDAAISKNGGSTYYADSVKGRFTISRDNAKNTVYVQMNSLKPEDTAVYYCNAVVYHYTLDHEYDYWGQGTQVTVSS | high polyreactivity
QVQLVESGGGLVQAGGSLRISCAASGLYAMGWYRQAPGKERELVADINSSGGSITNYADSVKGRFTISRDNAKNTVYLQMNSLKPEDTAVYYCNPDVPGDTGWWGFDYWGQGTQVTVSS | low polyreactivity
QVQLVESGGGLVQAGGSLRISCAASGNTFWKYAMGWYRQAPGKERELVAAISKSGGSTYYADSVKGRFTISRDNAKNTVYLQMNSLKPEDTAVYYCAAVNYRWYSRNYDHYYWGQGTQVTVSS | high polyreactivity
QVQLVESGGGLVQAGGSLRISCAASGRIFGANAMGWYRQAPAKERELVAAITSSGGNTYYADSVKGRFTISRDNAKNTVYLQMNCLKPEDTAVYYWSARSRWVSYNYWGQGTQVTVSS | high polyreactivity
QVQLVESGGGLVQAGGSLRISCAASGRIFIWYDMGWYRQAPGKERELVAAITQSDDITYYADSVKGRFTISRDNAKNTVYLQMNSLKPEDTAVYYCAARVLETSTPYGYWGQGTQVTVSS | low polyreactivity
QVQLVESGGGLVQAGGSLRISCAASGRIFSEYAMGWYRQAPGKERELVATITWTGGSTTYADSVKGRFTISRDNAKNTVYLQINSLKPEDTAVYYCAADATRLRTRYKRDYWGQGTQVTVSS | high polyreactivity
QVQLVESGGGLVQAGGSLRISCAASGRIFWANVMGWYRQAPGKERELVAAITGGGRTYYADSVKGRFTISRDNAKNTVYLQMNSLKPEDTAVYYCNAELNWYYYIHLDYWGQGTQVTVSS | low polyreactivity
QVQLVESGGGLVQAGGSLRISCAASGRIFYVYAMGWYRQAPGKERELVAAITSGGSTYYADSVKGRFTISRDNAKNTVYLQMNSLKPEDTAVYYCAAYNRGRFRPYRFEYWGQGTQVTVSS | high polyreactivity
QVQLVESGGGLVQAGGSLRISCAASGRILLRNVMGWYRQAPGKERELVAVITRTGITYYAYSVKGRFTISRDNAKNTVYLQMNSLKPEDTAVYYCAAGLPKYEHDYWGQGTQVTVSS | low polyreactivity
QVQLVESGGGLVQAGGSLRISCAASGRTFDPYAMGWYRQAPGKERELVASISRGGSTYADSVKGRFTISRDNAKNTVYLQMNSLKPEDTAVYYCNTSLYTEGDAMDYWGQGTQVTVSS | low polyreactivity
QVQLVESGGGLVQAGGSLRISCAASGRTFPGNAMGWYRQAPGKERELVAAISWSGTRTYYADSVKGRFTISRDNAKNTVYLQMNSLKPEDTAVYYCNVVVKGAWDYYPYDYWGQGTQVTVSS | high polyreactivity
QVQLVESGGGLVQAGGSLRISCAASGRTFSGNAMGWYRQAPGKERELVAAISSGGSTNYADSVKGRFTISRDNAKNTVYLQMNSLKPEDTAVYFCARDAYLPRIADGDGRYELVDYWGHGTQVTVSS | low polyreactivity
QVQLVESGGGLVQAGGSLRISCAASGRTFTRYAMGWYRQAPGKERELVASITTGGRTYYADSVKGRFTISRDNAKNTVYLQMNSLKPEDTAVYYCNADRVYAWYRTYDYWGQGTQVTVSS | high polyreactivity
